The target in this experiment is rhCD39-ECD. As to the kind of experiment: BLI. The settings on record: 30.0 °C.

With TTX-030, the Kd result is recorded as “approximately 1.5 nM” (pH 6.5) and “approximately 1.5 nM” (pH 7.4).
